Here are results for four molecules from article PMC12025923 (Cells, 2025).

The target in test [1] is T1, wild-type 14-3-3γ-nLuc (His6-14-3-3γ-nLuc) (human, UniProt P61981 2-247).
T1 construct: Size ~47.5 kDa as printed; The Nluc forward primer encodes a short linker (GGGGTRS, read from the primer) between 14-3-3γ and nLuc; also called wt 14-3-3γ-nLuc; 14-3-3γ-nLuc wt; source: E. coli Rosetta(DE3)pLysS, purified (Ni-NTA); not shown: nLuc (nanoluciferase), C-terminal, kept
T1 sequence (looked up): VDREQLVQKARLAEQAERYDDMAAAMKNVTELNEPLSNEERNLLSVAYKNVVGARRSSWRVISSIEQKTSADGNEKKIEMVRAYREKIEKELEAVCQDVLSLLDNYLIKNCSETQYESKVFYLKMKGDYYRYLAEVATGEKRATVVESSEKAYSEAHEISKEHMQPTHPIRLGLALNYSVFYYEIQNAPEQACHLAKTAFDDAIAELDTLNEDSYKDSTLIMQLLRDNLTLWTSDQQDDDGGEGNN
Nature of the test: FRET or BRET; in vitro BRET competition: wt 14-3-3γ-nLuc and FITC-phosphopeptide with increasing doses of R18 peptide (Figure S2D). As to conditions: both partners purified.

The target of test [2] is T2, 14-3-3γ-R57C-nLuc (human, UniProt P61981 2-247, R57C).
T2 sequence: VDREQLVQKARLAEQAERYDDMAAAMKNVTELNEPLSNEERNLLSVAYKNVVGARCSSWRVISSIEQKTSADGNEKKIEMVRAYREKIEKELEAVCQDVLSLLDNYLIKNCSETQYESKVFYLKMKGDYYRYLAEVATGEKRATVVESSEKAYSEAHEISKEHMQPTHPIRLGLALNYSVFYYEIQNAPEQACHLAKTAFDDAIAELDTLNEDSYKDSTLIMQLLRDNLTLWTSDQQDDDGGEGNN
Nature of the test: nafamostat 25 uM; apparent, Bmax set to wild-type.

For test [3], the target named is T2, 14-3-3γ-R57C-nLuc. The experiment in a line: degarelix 1 uM; apparent, Bmax set to wild-type.
The target of test [4] is T3, wild-type 14-3-3γ-nLuc (His6-14-3-3γ-nLuc) (human, UniProt P61981 2-247).
T3 chain: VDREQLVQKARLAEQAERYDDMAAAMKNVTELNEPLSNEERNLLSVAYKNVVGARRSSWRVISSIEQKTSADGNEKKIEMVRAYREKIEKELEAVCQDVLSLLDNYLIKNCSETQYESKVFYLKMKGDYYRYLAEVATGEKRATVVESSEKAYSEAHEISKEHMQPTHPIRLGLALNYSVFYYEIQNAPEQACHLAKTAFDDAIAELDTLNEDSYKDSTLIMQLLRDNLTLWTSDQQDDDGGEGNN
The experiment in a line: degarelix 1 uM.

Test [5] concerns the target T2, 14-3-3γ-R57C-nLuc. Nature of the test: DMSO; apparent, Bmax set to wild-type.
Test [6] deals with T3, wild-type 14-3-3γ-nLuc …. The experiment in a line: nafamostat 25 uM.
Test [7] concerns the target T1, wild-type 14-3-3γ-nLuc …. Nature of the test: FRET or BRET; in vitro BRET: 1 nM recombinant nLuc or 14-3-3γ-nLuc with increasing FITC-phosphopeptide in 20 mM Tris-HCl, 150 mM NaCl, 1 mg/mL BSA, 0.1% Tween 20; 250 nM furimazine; net BRET after subtraction of nLuc background; Kd from y = Bmax*x/(Kd + x). As to conditions: both partners purified.
Test [8] deals with T4, 14-3-3γ-R57C-nLuc (human, UniProt P61981 2-247, R57C).
T4 construct: 14-3-3γ (YWHAG), human, pathogenic patient variant R57C, site-directed mutant of the 14-3-3γ-nLuc plasmid; limits as m8; As m8 with R57C; source: E. coli Rosetta(DE3)pLysS, purified (Ni-NTA); not shown: nLuc (nanoluciferase), C-terminal, kept
T4 sequence (looked up): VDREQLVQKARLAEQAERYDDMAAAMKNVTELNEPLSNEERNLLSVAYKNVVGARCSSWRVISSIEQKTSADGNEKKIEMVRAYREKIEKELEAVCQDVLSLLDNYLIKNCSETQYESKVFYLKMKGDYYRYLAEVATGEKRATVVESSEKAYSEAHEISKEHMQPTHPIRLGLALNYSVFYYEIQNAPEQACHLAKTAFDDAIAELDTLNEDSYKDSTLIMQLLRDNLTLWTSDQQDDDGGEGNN
The description is as above. As to conditions: both partners purified.

In a further test the target is T5, 14-3-3γ-R57G-nLuc (human, UniProt P61981 2-247, R57G).
T5 construct: 14-3-3γ (YWHAG), human, pathogenic patient variant R57G, site-directed mutant of the 14-3-3γ-nLuc plasmid; limits as m8; As m8 with R57G; source: E. coli Rosetta(DE3)pLysS, purified (Ni-NTA); not shown: nLuc (nanoluciferase), C-terminal, kept
T5 sequence (looked up): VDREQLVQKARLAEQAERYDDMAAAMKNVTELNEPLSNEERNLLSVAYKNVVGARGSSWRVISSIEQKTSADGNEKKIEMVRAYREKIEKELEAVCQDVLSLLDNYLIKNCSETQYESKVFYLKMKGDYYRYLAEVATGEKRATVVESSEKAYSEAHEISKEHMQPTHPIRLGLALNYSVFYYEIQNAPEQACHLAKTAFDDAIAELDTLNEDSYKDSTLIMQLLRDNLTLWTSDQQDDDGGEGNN
Described as above. Conditions: both partners purified.

Primed or numbered codes have the meaning given here. Where no end group is shown, it is not given here. [ ]: non-standard residue; d: D form. FITC′ = fluorescein isothiocyanate label at the N-terminus; pS = N[C@@H](COP(=O)(O)O)C(=O)O

B1: R18 peptide (peptide)
peptide: PHCVPRDLSWLDLEANMCLP
notes: Not labelled with FITC (only the phosphopeptides were); source: synthetic peptide (AbClonal)
Turning to B1, in test [1], the binding result was “binds”.

B2: FITC-ppLRRK2 (peptide)
peptide: {FITC′}-QRHSN[pS]LGPIFDGSGGGSGIKARAS[pS]SPVILVGTHLD
notes: leucine-rich repeat kinase 2 (LRRK2), human; also called FITC-LRRK2; source: synthetic peptide (AbClonal)
As to B2, the Kd with 14-3-3γ-R57C-nLuc [2] amounted to 44.1 nM; with 14-3-3γ-R57C-nLuc [3], 25.2 nM; in [4] it was 0.89 nM; with 14-3-3γ-R57C-nLuc [5], 431 nM; in [6], 0.8 nM; in test [7], 0.74 nM. In addition, the “percent of the phosphopeptide binding reached at the highest peptide concentration” value with 14-3-3γ-R57C-nLuc [8] and with 14-3-3γ-R57G-nLuc was about 30% each time.

B3: FITC-pSLP76 (peptide)
peptide: {FITC′}-FPQSA[pS]LPPYFS
notes: SLP76 (Lymphocyte cytosolic protein 2/LCP2), human; source: synthetic peptide (AbClonal)
Consider B3, for which the Kd in test [7] worked out at 47.5 nM. The “percent of the phosphopeptide binding reached at the highest peptide concentration” value with 14-3-3γ-R57C-nLuc [8] and with 14-3-3γ-R57G-nLuc was about 30% throughout.

B4: FITC-pTH (peptide)
peptide: {FITC′}-MPTPDATTPQAKGFRRAV[pS]ELDAKQAEAIMSPRFIGRRQSLIE
notes: also called phosphopeptide derived from tyrosine hydroxylase (TH); source: synthetic peptide (AbClonal)
As for B4, the Kd with 14-3-3γ-R57C-nLuc [2] stood at 5280 nM; with 14-3-3γ-R57C-nLuc [3], 22200 nM; in test [4] it was 36.2 nM; in test [6] it was 75 nM; in test [7], 84.3 nM.
